test system: Saccharomyces cerevisiae; test: transcriptional activation domain activity (GFP:mCherry ratio, weighted mean of sorted bins, harmonized to initial dataset scale) (arbitrary fluorescence ratio units); higher = stronger transcriptional activation; settings: beta-estradiol 1 µM; induction time 4 h
Outline: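 Yeast diploids with a GFP reporter received barcoded protein tiles, fused to an estradiol-inducible synthetic transcription factor, at the URA3 locus. Cultures were diluted 1:5 into SC holding 1 uM beta-estradiol, incubated 4 hours at 30 °C, sorted into 8 bins on GFP:mCherry ratio, and sequenced for barcodes, with tiles under 50 reads discarded. Activation activity values come from the read-weighted mean of bin median fluorescence, averaged across barcodes and linearly placed on the initial dataset scale.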

Sequence | transcriptional activation domain activity
TIVLSAMQVGLATQFLVDDYAFSMASYVFSVFAILAPLSAIAAILFVLVLLFA | 49900
YVASQLIEIFLPEALFSVVYLSNAGKCLSREEFLVQFTFLVRLFKHEFVYPWN | 30700
MSDATPTSARKAMAPRRSHRKSRLGCANCKRRRIKCDEQKPACSNCVKHDIRC | 24400
TNAENSSQPSLAQWAKGREGVLMISSDVISNVQISIGKSRLASLLISLCLQRM | 47300
SEAVDFEVPDDFVVSWTGDLLPHTIIYCDFPPPMSVALFEPQPSDMDFDWFWI | 71600
MPLWPPFWSAFSFSFSFVLSFFFFLFPFPFPFPFPFSFSLSFLFFLFFSFLFF | 31000
KRKACLVCDLICTLLLQGLVSNEELRIDYSHRRCDLWRRQRWIGFVTPLSILE | 36400
THSKKQHCDVCKHPYSFTKVYASDMPKQLPLLLVLRKLVQQFFSVLLFSIRAI | 45400
FCRCLTGTGKSRMGVPVVSRLLCHFQGLLLRVMAHLFEDRPGSVRWMTIELLK | 28500
PCKCHTKRKSSRKSKGGSCHRRANDEAAHVNGLGIADLDVLLGLNGRSSDVDM | 44000
MRRLGWVGVSGLVSFLFTSFFFLVSFFLLLLLLLLTHFSFLFFFFAFTFILMM | 45500
SLSTFVYTFLRFHFYFFAFFLVALTFSFFLLFCSLFVCPVGIIFLYFFIFFVL | 52100
MGLPYFWFYKHTCFSVNYVSSLFVLFFFYFLVGVVGYVTMGLVIFFLFFFLFF | 70300
AAINGSANGKRRRTKEDGGEKADGRAGPKSENVVLQKTIEHIHGLLQHKSVLL | 45900
HFILTGSDLGWVLVYFDYDDRIYIFLMEWCKLNCYWIILMYIWNILPTALLLQ | 34300
SVCNDGNAGDFLYDCFGEFNNQPFNWDVLSPRVAANPYYSFDDFGSSLFILFQ | 106000
MFFLLVLAAVISGYKAVLKHFLVVISLFLHMIYLVPPLCLWKPILVASILSSP | 44700
ALYSLKGRELGWLCLTICTFDGKSWMEFGAFSRRGLFTYNYGLLQPNTKRIAV | 35700
SLPVSKGVWGSVGRVILLIFTAKPLEFCIQLTLVDFVEVDAHTMRVIHCRKVR | 28100
AQQPQKKPGAPKPKGAVRAKSGCYTCRIRRKKCDENPNAEGACQTCVRLRLQC | 66200
ERGKRKEGRKEEEGKEGEKGKEEKREEKRRGKRGEEKREGKKKEERRRGRRRR | 20800

Sequence | transcriptional activation domain activity
FLLCTFFAIFAFLLCYLLAFFSFHVFLYDDSLFLFYYCMSAACTFFCCMFLEF | 39600
MLRITLRVSIFLGYFPLFGWCAGFCFFRPFFFFFFACFRARWAFFFPSIRFFY | 37300
HIHCFVALFLVMPFFVLVFIVFLGGCNYCLQKKLVLPSLLLTFVIYGGGRLGF | 37900
TPFALFSSCYALNATVDQDYPLLFRRCVLGDTLWVLAILLCILWSLLVCFAFW | 31300
ALYLWTRHVGFANFVKLYFVPFMCVNHWIVMLTYLHHCDPTIPYFRRTQWSFL | 30800
MVLQNSMIVIFCHSFDIVWSVFLIGHYCILFYRYLIFCYVCVSFNWTFYLYIF | 58700
MIITFYTFFSFFPFFISFSLSLFSLRYFFFFFSFLSLSFFFFLFFLILIHLFL | 14400
MQSKAFSFLLSHISLIGFFFTFYEVLLLQFWFLFSLIFIPSYLLMLIVHLFLL | 49000
SFSSYSSLPSFPSFPYFPSFPFLPFLPFSCVLFLLFLPFLHFLLLPSFPFFYL | 70900
ESEVAVVVHIGANTTAYQFLALCAMMAPMRDLFYAFGRVTIYALAPMFHAVRV | 73900
MSADYAIGQFRYLAKLLLVHGHWNTYRIGVLHQVFFYKNLIWTGCLLIFQIFT | 45800
RGKSSSSSIGGAQEGAVRADETSHHHHHHHHQQQQQQQQQKQQQRHVQEQADI | 30600
KAPTAPRKAGIAAKAGEKEAAAGAAAKVAEVTEAAARRGRGRPKKAQEELTAS | 50500
FSSLEDSLPSSISPPIQTTSTINFNWCFKEEKNNDLKCKWKECPESCSSLFDL | 69800
MWTFGMIQLYYSPYWGDTRWFWLDYPKTLLSPTFKWYYLIQFAFWLQQLLLAL | 73400
MLAWIYGVFFSRSIMYCPLILLITCALDFHFFYFSYLFLWGLFRLRGYIYHGW | 52000
CPYYPMICPSFLPLLLVLLFSLYLFLSSPLDFFLPLDFLIHTHNCTFLRTKGQ | 40000
KEEEQKGEKEEDESEKETEKEEKKEEKKEKRKLMRRKPKAEELESEASEDERE | 21700
QLQCIPIFGNFVVLILCLKYIYSCNHFGSVTSHHTFHMLAVVLSTFFISLIPV | 43100
VFYGSNYFFICAISYVKGLGFCISDSFRYSWMSISPYWMIFMVVCNILPAILI | 63900
GRADARRGRRRRGGGGEGRRGTGDGGRGKTRGGEAGKERRTENRGARGGATRG | 39600

Sequence | transcriptional activation domain activity
IGLLLLSILVIYIFISFPHHTIESGHCTISFTSPIAIFYLLLLNFFLNTYLSF | 36300
MVLLLLLDYNVFCHFNFAVHLYLLPFINKFKRIVLGHLIFLWNYLVQVVVVSP | 67600
IIEEQSGEDDDLPGHKKQRKESLAELLASEPADGTSPRRKSGQIKRTVPAVVL | < 6570
QAARTSDYSIAQFRFLLKLLLVHGRWNYVRICKYTLGTFWKEMLFYSVQALYQ | 15400
ALSSASSALSPLSGDPITTTETNKSYPLDSEQSLLEPDKTEEDAINQSKESNM | 15300
LYLSLLKRKTTIWFFVYVVLQNYFLSTLYGRNWFFLFSSQHAPTWSIWLLAFI | 57300
LNWYWLASTMYFLYGESVIYYFKHIVLVDKVLLPLATHHRFISFLLYLMGFVF | 93000
MVGLVGFWVLFLFFLCPFLFSCPLPLPPLRPSLYIFQISYGSFFSCFSFLFFS | 63800
GDFNDKTLKENCRVDSQQDCYDLAQLQILESDFWKTIAFSKPFYAVDENSSIF | 102000
MCFVVFIRWELLMISHCAVVYLLLLFLLFIVHYFLIEGFLFLYVLVRAFAFVL | 41900
SLNIDSMLDDYVSSDLLLNDDDDDTNLSRRRFSDVITNQFPSMTNSRNSISHS | 52600
MTFVSEALITHRIDGGDIGVVNIFSKNKWRSKVYVRILVQICMRWVMMAIYLN | 55700
DELSRQKLGPDLHTILANLPGDLFGIYSRFLRPIHPRDFIHVARFLRWLLYAW | 69500
WTCVRRPGGLGGFFFGTWTGWQIWVGLLVFWVGGCTFGLLLMNRFLLLTGVYK | 42000
DVYNEGHICNHSDDEGRYAYKYQPTMILYAIRALLRSLSVLIGAEEELGNAVA | 36400
MYILFFFNIYYLYSILHLFCFRFFFISLFSFSFSLLSLLTYFLQYYIIIYLKI | 58200
SKDEEGEGEGEGDEEKVEEGGDEDGEQVEGEDGAKSAAATASAKKFSKREKEM | 48900
MTKPIIIKINHIFALRHYYLPYFHPYILFVFFSSLFTLRGTMWLILLFFGSFA | 50300
MLVRCPHLILNHKMPVLYLLFYLHIFHSLLLPFCIYASFFSFILFYQIGIFLL | 48400
